Laboratory results published in FireProtDB (doi:10.1021/bi00116a007).

Conditions: Escherichia coli (strain K12); pH 7.5; 25 °C; Urea; DSC; potassium-HEPES 40 mM; reversible: yes; whole UniProt chain shown

B1: Aspartate aminotransferase wild type, P00509 (protein)
chain: MFENITAAPADPILGLADLFRADERPGKINLGIGVYKDETGKTPVLTSVKKAEQYLLENETTKNYLGIDGIPEFGRCTQELLFGKGSALINDKRARTAQTPGGTGALRVAADFLAKNTSVKRVWVSNPSWPNHKSVFNSAGLEVREYAYYDAENHTLDFDALINSLNEAQAGDVVLFHGCCHNPTGIDPTLEQWQTLAQLSVEKGWLPLFDFAYQGFARGLEEDAEGLRAFAAMHKELIVASSYSKNFGLYNERVGACTLVAADSETVDRAFSQMKAAIRANYSNPPAHGASVVATILSNDALRAIWEQELTDMRQRIQRMRQLFVNTLQEKGANRDFSFIIKQNGMFSFSGLTKEQVLRLREEFGVYAVASGRVNVAGMTPDNMAPLCEAIVAVL
With B1 the denaturant m value was 2.56 kcal/mol/M, the “denaturant midpoint (higher = more stable)” value was 3.89 M and the unfolding free energy was 9.96 kcal/mol.
